According to the nanobody polyreactivity screen of Harvey et al. (2022):

Assay: yeast display, Sf9 membrane polyspecificity reagent, FACS + sequencing; frameworks hold sequencing errors
Outline: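 Polyreactivity labels are assigned by the sorting gate from which each nanobody was recovered. The gates were low and high (top ~1%), set on anti-HA fluorescence for expression and streptavidin fluorescence for reagent binding. Before sorting, galactose-induced (36–48 hours) yeast display cells were stained for 1 hour at 4 °C with 10% biotinylated, detergent-solubilized Sf9 membrane reagent.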

Sequence	polyreactivity (PSR sort gate)
QVQLVESGGGLVQAGGSLRLSCAASGRIFYYYVMGWYRQAPGKERELVAAISSRGGSTYYADSVKGRFTISRDNAKNTVYLQMNSLKPEDTAVYYCAAEYGSISLRYPYYWRYDYWGQGTQVTVSS	high polyreactivity
QVQLVESGGGLVQAGGSLRLSCAASGRIGKYAMGWYRQAPGKERELVATISSTGTTNYADSVKGRFTISRDNAKNTVYLQMNSLKPEDTAVYYCAADKPSYRTLSWGGYWGQGTQVTVSS	high polyreactivity
QVQLVESGGGLVQAGGSLRLSCAASGRIGRYAMGWYRQAPGKERELVAVITSGDSTYYADSVKGRFTISRDNAKNTVYLQMNSLTPEDTAVYYCAADSYRRWGNLFTGNEYDSWGQGTQVTVSS	low polyreactivity
QVQLVESGGGLVQAGGSLRLSCAASGRIIASYAMGWNRHAPGKETELVAAISLSGGSTYYADSVKGRFTISRDNAKNTVYLQMNSLKPEDCAVYYCAAKNYRRYRDYYWGQGTQVSVSS	high polyreactivity
QVQLVESGGGLVQAGGSLRLSCAASGRIIAVNAKGWYRQAPGKERELVAAINGGGSTNYADSVKGRFTISRDNAKNTVYLQMNSLKPEDTAVYYCAADVGWRSQTRGYYWGQGTQVTVSS	high polyreactivity
QVQLVESGGGLVQAGGSLRLSCAASGRIIAYYAMGWYRQAPGKERELVAGINSGGGSTYYADSVKGRFTISRDNAKNTVYLQMNSLKPEDTAVYYCAARAGGVDGYDYWGQGTQVTVSS	high polyreactivity
QVQLVESGGGLVQAGGSLRLSCAASGRIIDFYTMGWYRQAPGKERELVAGINGSGASTYYADSVKGRFTISRDNAKNTVYLQMNCLKPEDTAVYYCAKDPGYYDDYDYWGQGTQVTVSS	low polyreactivity
QVQLVESGGGLVQAGGSLRLSCAASGRIIFHNAMGWYRQAPGKERELVASITSGDGTYYSDSVKGRFTISRDNAKNTVYLQMNSMKPEDTAVYYCAAEPGSIAYYYNRVGLYYWGQGTQVTVSS	low polyreactivity
QVQLVESGGGLVQAGGSLRLSCAASGRIIGLYARGWYRQAPGKERELVAAITWRGGRTYYADSVKGRFTISRDNAKNTVYVQMNRLSPEDTAVYYCAADLSNSLDYWGQGSQVTVSS	high polyreactivity
QVQLVESGGGLVQAGGSLRLSCAASGRIIGWYAMGRYRQAPGKERELVAAISQDATRTYYADSVKGRFTISRDNAKHTVYLQMNRLKPEDTAVYYCNVVYRYAGWSYDSWGQGTQVTVSS	high polyreactivity
QVQLVESGGGLVQAGGSLRLSCAASGRIIGYYAKGWYRQAPGKERELVAAISYSGGATYYADSVKGRFTISRDNEMNTVYLQSKSLKPEVTAVYYCAAQGRWPQRYGYWGQGTQVTVSS	high polyreactivity
QVQLVESGGGLVQAGGSLRLSCAASGRIIGYYAMGWYRQAPGKERELVAAISRRGGSTYYADSVKGRFTISRDNAKNTVYLQMNSLKPEDTAVYYCNADRVLTRPRYDYWGQGTQVTVSS	low polyreactivity
QVQLVESGGGLVQAGGSLRLSCAASGRIIGYYAMGWYRQAPGKEWELVAAITSSGSRTYYADSVKGRFTISRDNAKNTVYLQMNSLKPDDTAVYYCATTKVYYSAKSSYYYWGQGNQVTVSS	high polyreactivity
QVQLVESGGGLVQAGGSLRLSCAASGRIIKLYAMGWYRQAPGKEREFVAAITWSGGRTYYADSVKGRFTISRDNAKNTVYLQMNSLKPEDTAVYYCAAYDTYDWYDYWGQGTQVTVSS	high polyreactivity
QVQLVESGGGLVQAGGSLRLSCAASGRIIPNNAMGWYRQAPGKERELVAAITRGGTTYADSVKGRFTISRDNAKNTVYLQMNSLKPEDTAVYYCDTAAVKYGYRYYYWGQGTQVTVSS	high polyreactivity
QVQLVESGGGLVQAGGSLRLSCAASGRIIPRNAMGWYRQAPGKEMELVAGISRGGSTYYADSVKGRFTISRDNAKNTVYLQMNSLKTEDTAVYYCAAAYQKSPITPKMDYWGQGTQVTVSS	low polyreactivity
QVQLVESGGGLVQAGGSLRLSCAASGRIIQGYAIGWYRQAPGKERELVDAIRSGSGSTYYADSVKGRFTISRDNAKNTVYLQMNSLKPEDTAVYYCAADRYYWGQGTQVTVSS	low polyreactivity
